Assays:
CD28 [1] = target: T1, CD28 (Homo sapiens, UniProt P10747); assay: Jurkat/IL2 + CHO/OKT3 +/- PD-L1 reporter assay: PD-L1-dependent CD28 costimulation; format: cell-based; parameters: host or cells: Jurkat cells expressing an IL-2-luciferase reporter; details: luciferase signal
In short: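 Readout is relative luminescence from lysed cocultures: test protein given 15 min at room temperature to Jurkat cells before adding CHO artificial APCs displaying OKT3 alone or OKT3 plus PD-L1, then 5 h at 37 °C, 5% CO2.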

CD28 [2] = target: T1, CD28; assay: CD28 costimulation via Fc receptor or PD-L1 dependent cross-linking (Jurkat/IL2 + K562/OKT3 +/- PD-L1); format: cell-based; parameters: host or cells: Jurkat cells expressing an IL-2-luciferase reporter; details: luciferase signal
Procedure: In a further experiment, CD28 costimulation was assessed for variant CD80-IgV-Fc fusion proteins, where the Fc was an IgG1 Fc (e.g. SEQ ID NO:1517) capable of mediating effector activity via binding to Fc receptors (FcR). The experiment was carried out as described in part A above, except CD32-expressing K562 cells stably transduced with OKT3 (K562/OKT3) or OKT3 and PD-L1 (K562/OKT3/PD-L1) were used instead of the CHO/OKT3 and CHO/OKT3/PD-L1 cells, and the results are depicted in Table E9.

huCTLA4 = huCTLA4 (Homo sapiens, UniProt P16410); assay: Flow binding to HEK293 cells transfected with CTLA4; parameters: Full-length mammalian surface expression constructs for each of human CTLA-4, PD-L1, and CD28; host or cells: HEK293 cells, Expi293F transient transfection system; details: Table E1
Sequence of huCTLA4 (P16410 36-223): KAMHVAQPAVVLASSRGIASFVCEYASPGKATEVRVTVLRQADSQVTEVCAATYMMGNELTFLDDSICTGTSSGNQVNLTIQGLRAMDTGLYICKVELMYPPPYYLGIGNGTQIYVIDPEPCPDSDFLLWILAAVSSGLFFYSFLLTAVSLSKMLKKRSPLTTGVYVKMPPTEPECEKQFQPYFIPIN
Procedure: Full-length mammalian surface expression constructs for each of human CTLA-4, PD-L1, and CD28, were designed in pcDNA3.1 expression vector (Life Technologies) and sourced from Genscript, USA. Binding studies were carried out on transfected HEK293 cells generated to express the full-length mammalian surface ligands using the using the Expi293F transient transfection system (Life Technologies, USA). As a control, binding to mock (non-transfected) cells also was assessed. […] For each CTLA-4, PD-L1, CD-28 or mock 30 mL transfection, 75 million Expi293F cells were incubated with 30 μg expression construct DNA and 1.5 mL diluted ExpiFectamine 293 reagent for 48 hours, at which point cells were harvested for staining.
For staining and analysis by flow cytometry, 100,000 cells of appropriate transient transfection or negative control (mock) were plated in 96-well round bottom plates. Cells were spun down and resuspended in staining buffer (PBS (phosphate buffered saline), 1% BSA (bovine serum albumin), and 0.1% sodium azide) for 20 minutes to block non-specific binding. […] Secondary antibody was washed out twice, cells were fixed in 4% formaldehyde/PBS, and samples were analyzed on Intellicyt flow cytometer (Intellicyt Corp, USA). Mean Fluorescence Intensity (MFI) was calculated for each transfectant and mock transfected HEK293 with FlowJo Version 10 software (FlowJo LLC, USA).

CD28 [3] = target: T1, CD28; assay: Flow binding to HEK293 cells transfected with CD28; parameters: Full-length mammalian surface expression constructs for each of human CTLA-4, PD-L1, and CD28; host or cells: HEK293 cells, Expi293F transient transfection system; details: Table E1
Procedure: This Example describes Fc-fusion binding studies of purified proteins from the above Examples to cell-expressed CTLA-4, PD-L1, and CD28 counter structures to assess the specificity and affinity of CD80 domain variant immunomodulatory proteins. Full-length mammalian surface expression constructs for each of human CTLA-4, PD-L1, and CD28, were designed in pcDNA3.1 expression vector (Life Technologies) and sourced from Genscript, USA. Binding studies were carried out on transfected HEK293 cells generated to express the full-length mammalian surface ligands using the using the Expi293F transient transfection system (Life Technologies, USA). As a control, binding to mock (non-transfected) cells also was assessed. […]
For staining and analysis by flow cytometry, 100,000 cells of appropriate transient transfection or negative control (mock) were plated in 96-well round bottom plates. […] As controls, the binding activities of wild-type CD80-ECD-Fc (R&D Systems), wild-type CD80-ECD-Fc (inert), wild-type IgV-Fc (inert) and/or human IgG (Sigma) were also assessed. […] Secondary antibody was washed out twice, cells were fixed in 4% formaldehyde/PBS, and samples were analyzed on Intellicyt flow cytometer (Intellicyt Corp, USA). Mean Fluorescence Intensity (MFI) was calculated for each transfectant and mock transfected HEK293 with FlowJo Version 10 software (FlowJo LLC, USA). […]

allogeneic CD4+ T cells = assay: Mixed Lymphocyte Reaction (MLR), IFN-gamma; format: cell-based, human; details: Table E32; variant ECD-Fc in MLR assay; culture supernatant
Procedure: Soluble rCD80.Fc bioactivity was tested in a human Mixed Lymphocyte Reaction (MLR). Human primary dendritic cells (DC) were generated by culturing monocytes isolated from PBMC (BenTech Bio, USA) in vitro for 7 days with 500U/ml rIL-4 (R&D Systems, USA) and 250 U/ml rGM-CSF (R&D Systems, USA) in Ex-Vivo 15 media (Lonza, Switzerland). 10,000 matured DC and 100,000 purified allogeneic CD4+ T cells (BenTech Bio, USA) were co-cultured with variant CD80 Fc fusion proteins and controls in 96 well round bottom plates in 200 μl final volume of Ex-Vivo 15 media. On day 5, IFN-gamma secretion in culture supernatants was analyzed using the Human IFN-gamma Duoset ELISA kit (R&D Systems, USA). Optical density was measured by VMax ELISA Microplate Reader (Molecular Devices, USA) and quantitated against titrated rIFN-gamma standard included in the IFN-gamma Duo-set kit (R&D Systems, USA).

human pan T cells = assay: Anti-CD3 coimmobilization assay, IFN-gamma; format: cell-based; details: Table E32; variant ECD-Fc coimmobilized with anti-CD3; culture supernatant
Procedure: Costimulatory bioactivity of CD80 fusion variants was determined in anti-CD3 coimmobilization assays. 1 nM or 4 nM mouse anti-human CD3 (OKT3, Biolegends, USA) was diluted in PBS with 1 nM to 80 nM rCD80.Fc variant proteins. This mixture was added to tissue culture treated flat bottom 96-well plates (Corning, USA) overnight to facilitate adherence of the stimulatory proteins to the wells of the plate. The next day, unbound protein was washed off the plates and 100,000 purified human pan T cells (BenTech Bio, US) or human T cell clone BC3 (Astarte Biologics, USA) were added to each well in a final volume of 200 μl of Ex-Vivo 15 media (Lonza, Switzerland). Cells were cultured 3 days before harvesting culture supernatants and measuring human IFN-gamma levels with Duoset ELISA kit (R&D Systems, USA) as described above.

huPD-L1 = huPD-L1 (Homo sapiens, UniProt Q9NZQ7); assay: Flow binding to Expi293F cells transfected with PD-L1 (ECD variants); parameters: Full-length mammalian surface expression constructs for each of human CTLA-4, PD-L1, and CD28; host or cells: HEK293 cells, Expi293F transient transfection system; details: Table E32; variant CD80 ECD-Fc selected against CD28
Sequence of huPD-L1 (Q9NZQ7 19-290): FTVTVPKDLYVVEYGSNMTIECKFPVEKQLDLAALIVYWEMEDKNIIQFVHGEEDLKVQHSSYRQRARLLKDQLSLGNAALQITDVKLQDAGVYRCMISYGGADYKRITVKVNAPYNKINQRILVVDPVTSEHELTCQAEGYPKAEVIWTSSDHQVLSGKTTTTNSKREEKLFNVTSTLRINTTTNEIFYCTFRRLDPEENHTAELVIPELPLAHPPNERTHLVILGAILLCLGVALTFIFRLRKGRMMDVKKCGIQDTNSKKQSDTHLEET
Procedure: To produce cells expressing cognate binding partners, full-length mammalian surface expression constructs for each of human CD28, CTLA-4 and PD-L1, were designed in pcDNA3.1 expression vector (Life Technologies) and sourced from Genscript, USA. Binding studies were carried out using the Expi293F transient transfection system (Life Technologies, USA). […] For each CD28, CTLA-4, PD-L1, or mock 30 ml transfection, 75 million Expi293F cells were incubated with 30 μg expression construct DNA and 1.5 ml diluted ExpiFectamine 293 reagent for 48 hours, at which point cells were harvested for staining.
For staining by flow cytometry, 200,000 cells of appropriate transient transfection or negative control were plated in 96-well round bottom plates. Cells were spun down and resuspended in staining buffer (PBS (phosphate buffered saline), 1% BSA (bovine serum albumin), and 0.1% sodium azide) for 20 minutes to block non-specific binding. […] Secondary antibody was washed out twice, cells were fixed in 4% formaldehyde/PBS, and samples were analyzed on FACScan flow cytometer (Becton Dickinson, USA).
Mean Fluorescence Intensity (MFI) was calculated for each transfectant and negative parental line with Cell Quest Pro software (Becton Dickinson, USA).

Substance	PD-L1-Dependent CD28 Costimulation, +PD-L1, 0.6 nM (CD28 [1]; CHO/OKT3/PD-L1 aAPC, 0.6 nM)	PD-L1-Dependent CD28 Costimulation, +PD-L1, 50 nM (CD28 [1]; CHO/OKT3/PD-L1 aAPC, 50 nM)	PD-L1-Dependent CD28 Costimulation, No PD-L1, 50 nM (CD28 [1]; CHO/OKT3 aAPC, no PD-L1, 50 nM)	PD-L1-Dependent CD28 Costimulation, No PD-L1, […] (CD28 [1]; CHO/OKT3 aAPC, no PD-L1, […])	CD28 costimulation, Combination of FcR and/or PD-L1 Dependent Cross-Linking, 0.6 nM (CD28 [2]; K562/0KT3/PD-L1 aAPC, 0.6 nM)	CD28 costimulation, Combination of FcR and/or PD-L1 Dependent Cross-Linking, 50 nM (CD28 [2]; K562/0KT3/PD-L1 aAPC, 50 nM)	CD28 costimulation, FcR Dependent Cross-Linking (No PD-L1), 0.6 nM (CD28 [2]; K562/0KT3 aAPC, 0.6 nM)	CD28 costimulation, FcR Dependent Cross-Linking (No PD-L1), 50 nM (CD28 [2]; K562/0KT3 aAPC, 50 nM)	CD28 costimulation, FcR Dependent Cross-Linking (No PD-L1), […] (CD28 [2]; K562/0KT3 aAPC, […])	CTLA4 MFI at 66.6 nM (huCTLA4)	CD28 MFI at 66.6 nM (CD28 [3])	MLR IFN-gamma levels (allogeneic CD4+ T cells)	Coimmobilization with anti CD3 IFN-gamma (human pan T cells)	Binding PD-L1 MFI (huPD-L1)
Fc only: negative control Fc alone [reference compound]	501	440	395	419	689	679	1404	1373	1390	5962	2592	–	–	–
WT CD80	–	–	–	–	–	–	–	–	–	–	–	866 pg/mL	83 pg/mL	70

Reference: patent publication US20220177587A1, “METHODS AND USES OF VARIANT CD80 FUSION PROTEINS AND RELATED CONSTRUCTS” (Alpine Immune Sciences, Inc., priority 2018, published 2022)
